This passage reports occupancy and stoichiometry N results from article PMC5472190.

Assay [1] addresses triplex of the HSV-1 capsid (herpes simplex virus 1, strain F). Put plainly: cryo-EM structure; icosahedral reconstruction of isolated PEVs (123 particles), projection matching from a starting map of in vitro-matured B-capsids that lack CCSC and pUL35; ~2 nm around the capsid shell, ~3.5 nm for the whole particle.
The target of assay [2] is nuclear egress complex (NEC), heterodimer of pUL31 and pUL34 (herpes simplex virus 1, strain F) (UniProt P10215). Put plainly: cryo-electron tomography; tomograms of nuclear sacs from US3-null-infected Vero cells; 188 ring subtomograms, rotational symmetry by ROTASTAT, subtomogram averaging.

Regarding “heterodimeric pUL17/pUL25 complex, C-capsid-specific complex (CCSC) (from UniProt P10201 1-703; P10209 1-580)”, in assay [1], the occupancy was found to be 100%.
The stoichiometry N is a count of units in the complex or per binding partner. “nuclear egress complex (NEC), heterodimer of pUL31 and pUL34 (from UniProt P10215 1-306; P10218 1-275)” had a stoichiometry N in assay [2] of 7.
